Data reported in patent publication US20260232732A1 (FUNDACI INSTITUT DE RECERCA CONTRA LA LEUC MIA JOSEP …, published 2026).
Where no end group is shown, it is not given here. The star is where a group is joined. Biotin = O=C1N[C@H]2[C@H](CS[C@H]2CCCCC(=O)*)N1

Experiments:
[1] = target: T1, biotin-peptide SSMEDYVNFN (human); test: ELISA biotin-peptide; scFv 10 ug/mL; repII
T1 peptide: Biotin-SSMEDYVNFN
Experimental: (§1) The peptides were synthesized naked or with a N-terminal Biotin modification with a purity of >98%. All four scFvs were verified by ELISA that can be detected with anti-His antibodies. ELISA was performed for scFv-peptide binding validation. Briefly, naked peptides were coated (50 μg/mL) in 0.58M carbonate-bicarbonate buffer pH9.5, 100 μL/well, 4° C. O/N. Then after blocking (3% BSA-PBS, 300 μL/well 37° C. 1.5 h) and washing (PBS+Tween-20 0.05% v/v (0.05% PBST), wells were incubated with each purified scFv antibody at concentration of 1 μg/mL in PBS at 37° C. 1 h. After washing (0.05% PBST), wells were incubated with secondary antibodies (goat anti-His IgG-HRP) in PBS, 37° C., 30 min. After washing, and incubation with TMB substrate, reactions were stopped with 2M HCl and reading was quantified at OD450.
(§2) ELISA with biotin-conjugated peptides (5 μg/mL) was performed very similar to described above with minor modifications.

[2] = target: T2, biotin-peptide MEDYVNFNFT (human); test: ELISA biotin-peptide; scFv 10 ug/mL; repII
T2 peptide: Biotin-MEDYVNFNFT
Experimental: as §1, §2

[3] = target: T3, biotin-peptide TDFTSPIPNM (human); test: ELISA biotin-peptide; scFv 10 ug/mL; repII
T3 peptide: Biotin-TDFTSPIPNM
Experimental: as §1, §2

[4] = target: T4, biotin-peptide KNNVRQFAS (human); test: ELISA biotin-peptide; scFv 10 ug/mL; repII
T4 peptide: Biotin-KNNVRQFAS
Experimental: as §1, §2

[5] = target: T5, biotin-peptide SESTSSMEDY (human); test: ELISA biotin-peptide; scFv 10 ug/mL; repII
T5 peptide: Biotin-SESTSSMEDY
Experimental: as §1, §2

[6] = target: T6, biotin-peptide FNFTDFYCEK (human); test: ELISA biotin-peptide; scFv 10 ug/mL; repII
T6 peptide: Biotin-FNFTDFYCEK
Experimental: as §1, §2

[7] = target: T7, biotin-peptide TSSMEDYVNF (human); test: ELISA biotin-peptide; scFv 10 ug/mL; repII
T7 peptide: Biotin-TSSMEDYVNF
Experimental: as §1, §2

[8] = target: T8, biotin-peptide MADDYGSEST (human); test: ELISA biotin-peptide; scFv 10 ug/mL; repII
T8 peptide: Biotin-MADDYGSEST
Experimental: as §1, §2

[9] = target: T9, biotin-peptide SMEDYVNFNF (human); test: ELISA biotin-peptide; scFv 10 ug/mL; repII
T9 peptide: Biotin-SMEDYVNFNF
Experimental: as §1, §2

[10] = target: T10, biotin-peptide TSPIPNMADD (human); test: ELISA biotin-peptide; scFv 10 ug/mL; repII
T10 peptide: Biotin-TSPIPNMADD
Experimental: as §1, §2

[11] = target: T11, biotin-peptide YCEKNNVRQF (human); test: ELISA biotin-peptide; scFv 10 ug/mL; repII
T11 peptide: Biotin-YCEKNNVRQF
Experimental: as §1, §2

[12] = target: T12, biotin-peptide IPNMADDYGS (human); test: ELISA biotin-peptide; scFv 10 ug/mL; repII
T12 peptide: Biotin-IPNMADDYGS
Experimental: as §1, §2

[13] = target: T13, biotin-peptide DYGSESTSSM (human); test: ELISA biotin-peptide; scFv 10 ug/mL; repII
T13 peptide: Biotin-DYGSESTSSM
Experimental: as §1, §2

[14] = target: T14, biotin-peptide YVNFNFTDFY (human); test: ELISA biotin-peptide; scFv 10 ug/mL; repII
T14 peptide: Biotin-YVNFNFTDFY
Experimental: as §1, §2

[15] = target: T15, biotin-peptide TDFYCEKNNV (human); test: ELISA biotin-peptide; scFv 10 ug/mL; repII
T15 peptide: Biotin-TDFYCEKNNV
Experimental: as §1, §2

[16] = target: T16, biotin-peptide MTPTDFTSPI (human, also: prints MTPTDFTSP, without I10); test: ELISA biotin-peptide; scFv 10 ug/mL; repII
T16 peptide: Biotin-MTPTDFTSPI
Experimental: as §1, §2

[17] = target: T17, naked peptide MEDYVNFNFT (human); test: ELISA naked peptide; scFv 1 ug/mL; repI
T17 peptide: MEDYVNFNFT
Experimental: as §1
(§3) Then a library of overlapping peptides were designed and constructed separately to produce 16 different peptides, covering full antigen sequence of total 48 aa. Peptide size was 10aa, with 7aa overlapping and ELISA screening of scFv against each peptide was performed in duplicate. Screening was performed using naked peptides in a standard plate or biotinylated peptides using avidin-plates.

[18] = target: T18, naked peptide DYGSESTSSM (human); test: ELISA naked peptide; scFv 1 ug/mL; repI
T18 peptide: DYGSESTSSM
Experimental: as §1, §3

[19] = target: T19, naked peptide YCEKNNVRQF (human); test: ELISA naked peptide; scFv 1 ug/mL; repI
T19 peptide: YCEKNNVRQF
Experimental: as §1, §3

[20] = target: T20, naked peptide MTPTDFTSPI (human); test: ELISA naked peptide; scFv 1 ug/mL; repI
T20 peptide: MTPTDFTSPI
Experimental: as §1, §3

[21] = target: T21, naked peptide KNNVRQFAS (human); test: ELISA naked peptide; scFv 1 ug/mL; repI
T21 peptide: KNNVRQFAS
Experimental: as §1, §3

[22] = target: T22, naked peptide SSMEDYVNFN (human); test: ELISA naked peptide; scFv 1 ug/mL; repI
T22 peptide: SSMEDYVNFN
Experimental: as §1, §3

[23] = target: T23, naked peptide SMEDYVNFNF (human); test: ELISA naked peptide; scFv 1 ug/mL; repI
T23 peptide: SMEDYVNFNF
Experimental: as §1, §3

[24] = target: T24, naked peptide FNFTDFYCEK (human); test: ELISA naked peptide; scFv 1 ug/mL; repI
T24 peptide: FNFTDFYCEK
Experimental: as §1, §3

[25] = target: T25, naked peptide YVNFNFTDFY (human); test: ELISA naked peptide; scFv 1 ug/mL; repI
T25 peptide: YVNFNFTDFY
Experimental: as §1, §3

[26] = target: T26, naked peptide TSPIPNMADD (human); test: ELISA naked peptide; scFv 1 ug/mL; repI
T26 peptide: TSPIPNMADD
Experimental: as §1, §3

[27] = target: T27, naked peptide SESTSSMEDY (human); test: ELISA naked peptide; scFv 1 ug/mL; repI
T27 peptide: SESTSSMEDY
Experimental: as §1, §3

[28] = target: T28, naked peptide TDFTSPIPNM (human); test: ELISA naked peptide; scFv 1 ug/mL; repI
T28 peptide: TDFTSPIPNM
Experimental: as §1, §3

[29] = target: T29, naked peptide TDFYCEKNNV (human); test: ELISA naked peptide; scFv 1 ug/mL; repI
T29 peptide: TDFYCEKNNV
Experimental: as §1, §3

[30] = target: T30, naked peptide TSSMEDYVNF (human); test: ELISA naked peptide; scFv 1 ug/mL; repI
T30 peptide: TSSMEDYVNF
Experimental: as §1, §3

Row | Binder | OD450 [1] | OD450 [2] | OD450 [3] | OD450 [4] | OD450 [5] | OD450 [6] | OD450 [7] | OD450 [8] | OD450 [9] | OD450 [10] | OD450 [11] | OD450 [12] | OD450 [13] | OD450 [14] | OD450 [15] | OD450 [16] | OD450 [17] | OD450 [18] | OD450 [19] | OD450 [20] | also measured
1 | Comparative antibody 3 (Comp-3) scFv, SR_92R (Somovilla-Crespo et al. 2018), His-tagged (scFv) scFv: EVKLEESGGGLVQPGGSMKLSCVASGFTFNKFWMNWVRQSPEKGLEWVAEIRLKSNNYATHYAESVKGRFTISRDDSKSSVYLQMNNLRAEDTGIYYCASDGWFAYWGQGTLVTVSAGGGGSGGGGSGGGGSGGGGSDVVMTQTPLSLPVSLGDQASISCRSSQSLVHSNGNTYLNWCLQRPGQSPKSLIYKVSNRFSGVPDRFSGSGSGTDFTLKISRVEAEDLGVYFCSQSTHFPRTFGGGTKLEIKRHHHHHH | 0.12 OD | 0.11 OD | 0.11 OD | 0.08 OD | 0.12 OD | 0.07 OD | 0.12 OD | 0.13 OD | 0.12 OD | 1.69 OD | 0.09 OD | 1.47 OD | 0.1 OD | 0.13 OD | 0.09 OD | 0.13 OD | 0.05 OD | 0.03 OD | 0.04 OD | 0.02 OD | OD450 [21]: 0.05 OD; OD450 [22]: 0.09 OD; OD450 [23]: 0.05 OD; OD450 [24]: 0.05 OD; OD450 [25]: 0.03 OD; OD450 [26]: 0.02 OD; OD450 [27]: 0.03 OD; OD450 [28]: 0.07 OD; OD450 [29]: 0.03 OD; OD450 [30]: 0.04 OD
2 | CCR9_HUM2 scFv (humanized anti-CCR9 scFv, SEQ ID NO: 17 with C-terminal 6xHis tag) (scFv) scFv: QVQLVQSGAEVKKPGASVKVSCTASGYSFTDYIIYWVKQAHGQSLEWMGYIDPNNYNTRYSQKFQGKVTITVDKSSTSAYMELNSLTSDDTAVYYCARDVYWGQGTTVTVSSGGGGSGGGGSGGGGSGGGGSDVVMTQTPLSLSVTPGQPASISCRSSQSLVHSNGKTYLQWYLQKPGQSPKLLIYKVSNRFSGVPDRFSGSGSGTDFTLKISRVEAEDVGVYFCAQSTHVWTFGGGTKVEIKRAHHHHHH | 2.3 OD | 2.32 OD | 0.09 OD | 0.09 OD | 0.09 OD | 0.06 OD | 1.92 OD | 0.16 OD | 2.38 OD | 0.06 OD | 0.06 OD | 0.1 OD | 0.07 OD | 0.21 OD | 0.06 OD | 0.09 OD | 0.84 OD | 0.02 OD | 0.04 OD | 0.04 OD | OD450 [21]: 0.03 OD; OD450 [22]: 0.9 OD; OD450 [23]: 1.54 OD; OD450 [24]: 0.04 OD; OD450 [25]: 0.03 OD; OD450 [26]: 0.03 OD; OD450 [27]: 0.03 OD; OD450 [28]: 0.05 OD; OD450 [29]: 0.05 OD; OD450 [30]: 0.03 OD
3 | Comparative antibody 2 (Comp-2) scFv, 243LO326 (VH SEQ ID NO: 51 and VL SEQ ID NO: 52 of WO 2022/195028 A2), His-tagged (scFv) scFv: QVQLVQSGAEVKKPGASVKVSCKASGYTFTSYWMHWVRQAPGQGLEWIGVIYPGNSDTRYNQKFKGRVTITRDTSASTAYMELSSLRSEDTAVYYCTRDYYSNYVYYYAMDYWGQGTTVTVSSGGGGSGGGGSGGGGSGGGGSDIVMTQTPLSLPVTPGEPASISCRSSQSLVHPNRNTYLHWYLQKPGQSPQLLIYKVSNRFSGVPDRFSGSGSGTDFTLKISRVEAEDVGVYYCSQSTHVPWTFGQGTKLEIKHHHHHH | 0.1 OD | 0.08 OD | 0.12 OD | 0.07 OD | 0.05 OD | 1.35 OD | 0.06 OD | 0.09 OD | 0.05 OD | 0.05 OD | 0.1 OD | 0.09 OD | 0.09 OD | 2.06 OD | 0.05 OD | 0.1 OD | 0.04 OD | 0.02 OD | 0.05 OD | 0.03 OD | OD450 [21]: 0.04 OD; OD450 [22]: 0.1 OD; OD450 [23]: 0.03 OD; OD450 [24]: 0.03 OD; OD450 [25]: 0.02 OD; OD450 [26]: 0.02 OD; OD450 [27]: 0.03 OD; OD450 [28]: 0.04 OD; OD450 [29]: 0.03 OD; OD450 [30]: 0.03 OD
